Results published in patent US20250313602A1 (NANJING JSIAMA BIOPHARMACEUTICALS, published 2025).

Key:
[1] = target: T1, human IL-2Rα protein (10165-H08H, Sino Biological) (human, UniProt P01589 22-213); experiment: ELISA, IL-2Rα coated at 2 µg/ml
T1 construct: Both are treated as the same protein; also called receptor IL-2Rα protein; CD25
T1 sequence (looked up): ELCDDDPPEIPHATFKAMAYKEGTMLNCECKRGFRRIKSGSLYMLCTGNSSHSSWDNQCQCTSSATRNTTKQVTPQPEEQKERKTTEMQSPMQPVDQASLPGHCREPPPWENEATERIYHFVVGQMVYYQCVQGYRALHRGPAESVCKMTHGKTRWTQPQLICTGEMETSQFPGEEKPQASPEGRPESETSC

[2] = target: T2, human IL-2Rβ protein (10696-H05H, Sino Biological) (human, UniProt P14784 27-239); experiment: ELISA, IL-2Rβ coated at 2 µg/ml; reference wild-type IL-2
T2 construct: Both are treated as the same protein; also called receptor IL-2Rβ protein; CD122
T2 sequence (looked up): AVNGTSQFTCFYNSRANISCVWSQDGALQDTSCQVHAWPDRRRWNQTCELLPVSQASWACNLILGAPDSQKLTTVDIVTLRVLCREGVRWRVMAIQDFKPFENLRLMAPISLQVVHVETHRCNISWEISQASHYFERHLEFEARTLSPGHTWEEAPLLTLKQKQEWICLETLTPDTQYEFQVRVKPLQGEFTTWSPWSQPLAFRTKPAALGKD

B1: IL-2-Fc fusion protein (Fc fusion)
chain: APTSSSTKKTQLQLEHLLLDLQMILNGINNYKNPKLTAMLTFKFYMPKKATELKHLQCLEEELKPLEEVLNLAQSKNFHFDPRDVVSNINVFVLELKGSETTFMCEYADETATIVEFLNRWITFCQSIISTLTGGGGSGGGGSGGGGSEPKSCDKTHTCPPCPAPEAAGGPSVFLFPPKPKDTLYITREPEVTCVVVDVSHEDPEVKFNWYVDGVEVHNAKTKPREEQYNSTYRVVSVLTVLHQDWLNGKEYKCKVSNKALPAPIEKTISKAKGQPREPQVYTLPPSREEMTKNQVSLTCLVKGFYPSDIAVEWESNGQPENNYKTTPPVLDSDGSFFLYSKLTVDKSRWQQGNVFSCSVMHEALHNHYTQKSLSLSPK
[1]
  binding result: binds
[2]
  fold improvement of binding capacity compared with wild-type IL-2: 24 times
